# Laboratory results reported in US9309320.
# Biological target: murine CD95L, endogenous in SMA-560 tumor explants (murine) (UniProt P41047)
# Test: cell-based or functional assay
# Chain of UniProt P41047 (P41047 whole entry): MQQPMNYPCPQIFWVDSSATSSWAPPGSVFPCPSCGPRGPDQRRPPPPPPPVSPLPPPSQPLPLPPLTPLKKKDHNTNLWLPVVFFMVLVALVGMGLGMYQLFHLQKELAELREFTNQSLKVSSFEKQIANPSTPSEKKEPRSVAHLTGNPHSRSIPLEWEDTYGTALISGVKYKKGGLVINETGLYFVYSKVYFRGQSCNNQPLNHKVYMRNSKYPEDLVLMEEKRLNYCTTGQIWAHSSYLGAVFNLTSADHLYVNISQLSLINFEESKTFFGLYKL
substance,measurement,value
"MFL3, anti murine-CD95L neutralizing antibody",decrease in migration of cells out of SMA-560 tumor explants into collagen,50%
